Results: PMC9863245, “A Putative New Role of Tv-PSP1 Recognizes IRE and ERE Hairpin Structures from Trichomonas vaginalis”

T1: Tv-PSP1 (Trichomonas vaginalis, UniProt A2DAL5 1-124)
T1 sequence: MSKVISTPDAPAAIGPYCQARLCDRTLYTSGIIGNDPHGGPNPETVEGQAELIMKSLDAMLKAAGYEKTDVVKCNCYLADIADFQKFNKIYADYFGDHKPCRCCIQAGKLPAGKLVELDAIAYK

B1: ERE-like (tvcp39 3' UTR) (structured_RNA)
RNA: GGGGUUUAGAAUUUCCAAUAA

Key:
[1] = biological target: Tv-PSP1, perchloric-acid-soluble protein (PSP) from Trichomonas vaginalis (Trichomonas vaginalis); assay: crystal structure; recombinant Tv-PSP1 20 mg/mL in 25 mM Tris-HCl pH 7.4, 150 mM NaCl, 1 mM DTT; sitting-drop vapor diffusion at 18 °C; space group P63, 1.95 Å; trimers built from the same monomer of different asymmetric units, interfaces analysed with PISA
Tv-PSP1 = biological target: T1, Tv-PSP1; assay: EMSA; 3 mM Mg2+; REMSA: 50 mM Tris-HCl, 75 mM KCl, 3 mM MgCl2, 10 mM DTT, 37 C, 30 min, pH not stated; 100 ug protein, 1 ug RNA; 1.7% agarose; settings: protein: recombinant; chain copies: 3; hairpin

Row | Molecule | stoichiometry N [1] | binding result (Tv-PSP1)
1 | Tv-PSP1, perchloric-acid-soluble protein (PSP) from Trichomonas vaginalis (natural protein) | 3 | –
2 | B1 | – | binds
